Assay results published in patent US9683053B2 (Glenmark Pharmaceuticals S.A., dated 2017).

Legend:
Assay in all cases: co-expression, protein-A, scanning densitometry of non-reduced SDS-PAGE
VL-BT beta chain = VL-BT beta chain (Artificial Sequence)
[1] = target: VH(anti-hCD19)-CH13-BT beta c-myc_VL(anti-hCD19)-CK3 molecule (half-molecule) (Artificial Sequence)
[2] = target: VH(anti-hCD19)-CH1 delta-BT beta c-myc_VL(anti-hCD19)-CK gamma molecule (half-molecule) (Artificial Sequence)
VL-BT beta F405A chain = VL-BT beta F405A chain (Artificial Sequence)
Sequence of VL-BT beta F405A chain (Artificial Sequence) (chain, as listed by the source F405A F405A): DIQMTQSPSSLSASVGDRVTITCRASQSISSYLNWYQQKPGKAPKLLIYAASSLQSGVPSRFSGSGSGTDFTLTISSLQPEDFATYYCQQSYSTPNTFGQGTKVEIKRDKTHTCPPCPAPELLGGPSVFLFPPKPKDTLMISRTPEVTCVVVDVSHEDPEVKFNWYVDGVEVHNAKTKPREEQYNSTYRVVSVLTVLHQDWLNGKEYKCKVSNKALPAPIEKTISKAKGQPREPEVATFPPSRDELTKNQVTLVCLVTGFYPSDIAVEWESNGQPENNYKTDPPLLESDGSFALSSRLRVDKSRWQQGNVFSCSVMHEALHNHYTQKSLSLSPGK

Sequence of VH(anti-hCD19)-CH1 delta-BT beta c-myc_VL(anti-hCD19)-CK gamma molecule (half-molecule) (Artificial Sequence) (heavy, as listed by the source, chain 1 of 2): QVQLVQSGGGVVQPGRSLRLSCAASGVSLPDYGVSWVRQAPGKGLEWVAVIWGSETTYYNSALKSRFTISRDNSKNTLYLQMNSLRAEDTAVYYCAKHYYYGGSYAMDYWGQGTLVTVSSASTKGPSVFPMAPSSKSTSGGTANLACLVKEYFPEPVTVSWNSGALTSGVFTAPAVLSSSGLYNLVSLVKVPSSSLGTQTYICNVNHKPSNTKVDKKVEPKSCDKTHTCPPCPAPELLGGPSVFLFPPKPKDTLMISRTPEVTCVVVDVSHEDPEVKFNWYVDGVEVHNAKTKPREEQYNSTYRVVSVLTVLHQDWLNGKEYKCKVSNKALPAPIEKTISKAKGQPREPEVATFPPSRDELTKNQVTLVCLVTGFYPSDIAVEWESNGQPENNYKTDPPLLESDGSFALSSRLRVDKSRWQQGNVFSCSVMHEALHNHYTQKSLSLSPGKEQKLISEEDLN
Sequence of VH(anti-hCD19)-CH1 delta-BT beta c-myc_VL(anti-hCD19)-CK gamma molecule (half-molecule) (Artificial Sequence) (light, as listed by the source, chain 2 of 2): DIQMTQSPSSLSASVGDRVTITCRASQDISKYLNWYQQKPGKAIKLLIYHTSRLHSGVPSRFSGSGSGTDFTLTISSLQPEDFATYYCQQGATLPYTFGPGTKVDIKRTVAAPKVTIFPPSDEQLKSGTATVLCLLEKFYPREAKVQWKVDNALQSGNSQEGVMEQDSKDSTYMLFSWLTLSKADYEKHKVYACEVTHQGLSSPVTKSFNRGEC
Sequence of VL-BT beta chain (Artificial Sequence) (chain, as listed by the source): as the sequence (chain, as listed by the source F405A F405A) above, with A293C counted along it
Sequence of VH(anti-hCD19)-CH13-BT beta c-myc_VL(anti-hCD19)-CK3 molecule (half-molecule) (Artificial Sequence) (heavy, as listed by the source, chain 1 of 2): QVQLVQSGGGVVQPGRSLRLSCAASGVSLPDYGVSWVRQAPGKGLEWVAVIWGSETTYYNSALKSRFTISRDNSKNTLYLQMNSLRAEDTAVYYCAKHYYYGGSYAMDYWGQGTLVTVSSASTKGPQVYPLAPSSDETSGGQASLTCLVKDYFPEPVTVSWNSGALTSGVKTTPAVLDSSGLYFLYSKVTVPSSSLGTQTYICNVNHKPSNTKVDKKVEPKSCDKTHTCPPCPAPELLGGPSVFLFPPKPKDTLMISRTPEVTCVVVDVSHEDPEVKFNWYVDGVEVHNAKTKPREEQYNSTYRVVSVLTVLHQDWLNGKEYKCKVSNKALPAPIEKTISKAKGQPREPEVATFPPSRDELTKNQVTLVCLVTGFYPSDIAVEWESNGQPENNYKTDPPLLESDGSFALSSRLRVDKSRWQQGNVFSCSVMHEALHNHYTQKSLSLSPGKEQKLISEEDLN
Sequence of VH(anti-hCD19)-CH13-BT beta c-myc_VL(anti-hCD19)-CK3 molecule (half-molecule) (Artificial Sequence) (light, as listed by the source, chain 2 of 2): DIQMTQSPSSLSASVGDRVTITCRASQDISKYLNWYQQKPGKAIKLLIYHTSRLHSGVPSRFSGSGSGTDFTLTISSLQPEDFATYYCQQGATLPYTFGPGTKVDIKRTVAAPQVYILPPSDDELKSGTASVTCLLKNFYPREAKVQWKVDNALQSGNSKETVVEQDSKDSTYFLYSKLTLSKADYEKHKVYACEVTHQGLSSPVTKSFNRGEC

B1: BT alpha His chain (other)
chain: DKTHTCPPCPAPELLGGPSVFLFPPKPKDTLMISRTPEVTCVVVDVSHEDPEVKFNWYVDGVEVHNAKTKPREEQYNSTYRVVSVLTVLHQDWLNGKEYKCKVSNKALPAPIEKTISKAKGQPREPQVYTLPPSRDELTKNQVKLVCLVTGFYPSDIAVEWESNGQPENNYYTTPPVLDSDGSFSLVSWLNVDKSRWQQGNVFSCSVMHEALHNHYTQKSLSLSPGKHHHHHH
VL-BT beta chain
  hetero-dimer percentage of the protein-A purified material: ≥ 76.1%
[1]
  hetero-dimer percentage of the protein-A purified material: ≥ 51.9%
[2]
  hetero-dimer percentage of the protein-A purified material: ≥ 50%
VL-BT beta F405A chain
  hetero-dimer percentage of the protein-A purified material: ≥ 80.7%
